In US9926369B2, “Methods for treating hepatocellular cancer by administering an anti-Ang-2 antibody” (Regeneron Pharmaceuticals, Inc., priority 2009, dated 2018):

Legend:
hAng-2-WT = target: T1, hAng-2-WT (Homo sapiens, UniProt O15123); assay: SPR binding to wild-type human Ang-2 (Table 8)
T1 construct: wild-type human Ang-2 (hAng-2-WT)
T1 sequence (O15123 19-496): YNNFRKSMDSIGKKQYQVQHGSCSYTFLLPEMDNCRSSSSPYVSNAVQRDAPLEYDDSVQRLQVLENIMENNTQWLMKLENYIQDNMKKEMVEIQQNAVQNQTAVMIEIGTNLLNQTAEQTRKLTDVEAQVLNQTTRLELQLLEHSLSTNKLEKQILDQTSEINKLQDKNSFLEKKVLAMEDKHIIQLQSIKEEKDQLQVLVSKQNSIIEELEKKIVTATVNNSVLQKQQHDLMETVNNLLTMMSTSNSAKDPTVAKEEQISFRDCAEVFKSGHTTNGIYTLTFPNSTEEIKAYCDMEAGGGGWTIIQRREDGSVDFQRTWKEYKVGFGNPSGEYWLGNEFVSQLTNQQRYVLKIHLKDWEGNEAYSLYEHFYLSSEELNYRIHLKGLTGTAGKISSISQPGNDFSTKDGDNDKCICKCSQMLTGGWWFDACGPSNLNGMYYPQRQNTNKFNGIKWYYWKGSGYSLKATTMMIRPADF
Experimental: Equilibrium dissociation constants (KD values) for the binding of selected purified Ang-2 antibodies to dimeric fibrinogen-like domain of human (SEQ ID NO: 519), mouse (Mus musculus; SEQ ID NO: 520) and monkey (Macca fascicularis; SEQ ID NO: 521) Ang-2 (Ang-2FD) conjugated to human IgG1 (SEQ ID NO:528) were determined by surface kinetics using a real-time biosensor surface plasmon resonance assay. Antibody was captured on a goat anti-mouse IgG polyclonal antibody surface, a goat anti-human κ polyclonal antibody (Southern Biotech, Birmingham, Ala.) surface or a goat anti-human IgG polyclonal antibody (Jackson Immuno Research Lab, West Grove, Pa.) surface created through direct amine coupling to a BIACORE™ CM5 sensor chip to form a captured antibody surface. Varying concentrations (ranging from 50 nM to 6.25 nM) of protein were injected at 100 μl/min over captured antibody surface for 90 seconds. Antigen-antibody binding and dissociation were monitored in real time at room temperature. Kinetic analysis was performed to calculate KD and half-life of antigen/antibody complex dissociation.
In yet another experiment, KD values for selected purified antibodies that bind to wild-type human Ang-2 (hAng-2-WT; SEQ ID NO: 518) and the fibrinogen-like domain of human Ang2 (hAng-2FD) were determined (as described above).

[1] = target: T2, hAng-2-WT binding to hTie-2-mFc (Homo sapiens, UniProt O15123); assay: Biosensor SPR blocking of hAng-2-WT binding to hTie-2-mFc-ecto surface; assay type: biochemical; conditions: 25 nM hAng-2-WT
T2 sequence (O15123 19-496): T1 sequence (O15123 19-496)
Experimental: (§1) The foregoing experiment was repeated using different amounts of Ang-2 blockers and controls. In particular, a human Tie-2 full-length extracellular domain construct (hTie-2-mFc-ecto) was amine-coupled on a BIACORE™ chip to create a receptor-coated surface. Selected anti-hAng-2 antibodies and control constructs (50 or 150 nM) were mixed with hAng-2-WT (25 nM) followed by 60 minutes incubation at 25° C. to allow antibody-antigen binding to reach equilibrium. The equilibrated solutions were injected over the receptor surfaces at 10 μL/min for 5 minutes at 25° C. To evaluate the ability of the selected anti-hAng-2 antibodies to block Ang-1-WT binding to hTie-2, a similar procedure was followed except the antibodies were tested at three concentrations (50, 100 or 1000 nM) and incubated with 10 nM of hAng-1-WT. Changes in resonance units (RU) due to the binding of the Ang-2-WT or hAng-1-WT to hTie-2-mFc were determined. An irrelevant antibody with no binding to either angiopoietin was included in these experiments to establish the 0% blocking baseline, and a human Tie-2-mFc construct was used as a positive control for blocking. Results are summarized in Tables 21 (hAng-1 applied to a hTie-2 surface) and 22 (hAng-2 applied to a hTie-2 surface).

[2] = target: T3, hAng-1-WT binding to hTie-2-mFc (Homo sapiens, UniProt Q15389); assay: Biosensor SPR blocking of hAng-1-WT binding to hTie-2-mFc-ecto surface; assay type: biochemical; conditions: for Percent of Neg. Ctrl Binding (hAng-1 WT) / Specific Bound RU (hAng-1 WT): 10 nM hAng-1-WT
T3 sequence (Q15389 20-498 limits assumed): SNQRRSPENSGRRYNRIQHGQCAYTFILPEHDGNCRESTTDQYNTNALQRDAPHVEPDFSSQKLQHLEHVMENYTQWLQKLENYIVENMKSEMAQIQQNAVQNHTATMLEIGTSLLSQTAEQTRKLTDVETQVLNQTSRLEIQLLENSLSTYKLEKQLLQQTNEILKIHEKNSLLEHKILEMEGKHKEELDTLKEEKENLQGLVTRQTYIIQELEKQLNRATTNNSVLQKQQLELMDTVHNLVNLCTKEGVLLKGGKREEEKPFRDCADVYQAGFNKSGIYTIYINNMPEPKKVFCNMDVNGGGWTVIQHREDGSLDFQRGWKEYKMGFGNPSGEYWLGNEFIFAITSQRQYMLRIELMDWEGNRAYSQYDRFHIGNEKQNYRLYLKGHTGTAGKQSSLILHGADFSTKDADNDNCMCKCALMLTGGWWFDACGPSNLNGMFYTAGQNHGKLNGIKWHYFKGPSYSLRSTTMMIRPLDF
Experimental: In an effort to further assess the ability of selected anti-hAng-2 antibodies to block the binding of Ang-1 to Tie-2, a biosensor surface plasmon resonance experiment was conducted. In this experiment, a human Tie-2 full-length extracellular domain construct (hTie-2-mFc-ecto) was amine-coupled on a BIACORE™ chip to create a receptor coated surface. Selected anti-hAng-2 antibodies and control constructs, at 1 μM (100-fold excess over antigen), were premixed with 10 nM of hAng-1-WT, followed by 60 minutes incubation at 25° C. to allow antibody-antigen binding to reach equilibrium to form equilibrated solutions. The equilibrated solutions were injected over the receptor surfaces at 5 μL/min for 5 minutes at 25° C. Changes in resonance units (RU) due to the binding of the hAng-1-WT to hTie-2-mFc were determined. An irrelevant peptibody construct with no binding to hAng-1 was included in this experiment to establish the 0% blocking baseline, and a human Tie-2-mFc construct was used as a positive control for blocking. The amount of Ang-1 bound to Tie-2 following antibody preincubation, expressed as a percentage of the amount of Ang-1 bound to Tie-2 following negative control preincubation, is shown in Table 20. (A greater amount of Ang-1 binding to Tie-2 signifies a lower degree of antibody blocking).
as §1

[3] = 1 μM antibody premixed with 10 nM hAng-1-WT, 25° C.

Question: How did the Kd (hAng-2-WT) turn out when “H1H685P: human anti-Ang-2 antibody, HCVR/LCVR SEQ ID NOs 18/20; also referred to as mAb1 [Antibody H1H685P]” was run?
Answer: 0.0476 nM

Question: What about the “Percent of Neg. Ctrl Binding (hAng-2 WT)” value ([1]; 50 nM antibody or control) of the same substance?
Answer: 4.3%

Question: What about the “Specific Bound RU (hAng-2 WT)” value ([1]; 50 nM antibody or control) of the same substance?
Answer: 12 RU

Question: And the “Percent of Neg. Ctrl Binding (hAng-2 WT)” value ([1]; 150 nM antibody or control)?
Answer: 4.3%

Question: And the “Specific Bound RU (hAng-2 WT)” value ([1]; 150 nM antibody or control)?
Answer: 12 RU

Question: What about the “Blocking of binding of human Ang-1 to human Tie-2 (in words)” value [2] of the same substance?
Answer: do not significantly block

Question: And the “Percent of Neg. Ctrl Binding (hAng-1 WT)” value ([2]; 50 nM antibody or control)?
Answer: 95%

Question: What about the “Specific Bound RU (hAng-1 WT)” value ([2]; 50 nM antibody or control) of the same substance?
Answer: 299 RU

Question: And the “Percent of Neg. Ctrl Binding (hAng-1 WT)” value ([2]; 100 nM antibody or control)?
Answer: 95%

Question: What about the “Specific Bound RU (hAng-1 WT)” value ([2]; 100 nM antibody or control) of the same substance?
Answer: 291 RU

Question: And the “Percent of Negative Control Binding (hAng-1-WT to Tie-2)” value [2, 3]?
Answer: 81%

Question: And the “RU (average), hAng-1-WT bound to hTie-2-mFc” value [2, 3]?
Answer: 137 RU

Question: What about the “Percent of Neg. Ctrl Binding (hAng-1 WT)” value ([2]; 1000 nM antibody or control) of the same substance?
Answer: 105%

Question: And the “Specific Bound RU (hAng-1 WT)” value ([2]; 1000 nM antibody or control)?
Answer: 289 RU
